Results reported in patent publication US20030157554A1 (published 2003).
One block for each binder: values may come before it.

Experiments:
[1] = target: S100A6 (Genbank ID: M14300) (human, UniProt P06703 1-90); experiment: Y2H 1x1 mating, binder AD fusion, target BD fusion
[2] = target: T1, S100A9 (Genbank ID: M26311) (human, UniProt P06702 1-114); experiment: Y2H 1x1 mating, binder AD fusion, target BD fusion
T1 construct: range 1-114; Prey from liver and muscle libraries
T1 sequence (looked up): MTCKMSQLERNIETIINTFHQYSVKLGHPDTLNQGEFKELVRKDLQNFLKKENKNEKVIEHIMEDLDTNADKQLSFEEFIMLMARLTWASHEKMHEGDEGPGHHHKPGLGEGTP

S100A1-1 = target: T2, S100A1-1 (human, UniProt P23297 1-94); experiment: Y2H, baits tested against each other
T2 construct: Full-length bait; also called full length S100A1
T2 sequence (looked up): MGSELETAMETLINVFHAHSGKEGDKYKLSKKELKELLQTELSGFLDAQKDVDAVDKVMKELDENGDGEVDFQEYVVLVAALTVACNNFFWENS

[3] = target: the molecule itself; experiment: Y2H, baits tested against each other
S100B-1 = target: T3, S100B-1 (human, UniProt P04271 1-92); experiment: Y2H, baits tested against each other
T3 construct: Full-length bait; also called full length S100B
T3 sequence (looked up): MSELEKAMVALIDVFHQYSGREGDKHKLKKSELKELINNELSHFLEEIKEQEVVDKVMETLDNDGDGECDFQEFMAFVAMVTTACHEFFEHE

[4] = target: T4, STAU (Genbank ID: AF061939) (human, UniProt O95793 6-577); experiment: Y2H 1x1 mating, binder AD fusion, target BD fusion
T4 construct: range 6-578; Prey from brain library; also called Staufen
T4 sequence (looked up): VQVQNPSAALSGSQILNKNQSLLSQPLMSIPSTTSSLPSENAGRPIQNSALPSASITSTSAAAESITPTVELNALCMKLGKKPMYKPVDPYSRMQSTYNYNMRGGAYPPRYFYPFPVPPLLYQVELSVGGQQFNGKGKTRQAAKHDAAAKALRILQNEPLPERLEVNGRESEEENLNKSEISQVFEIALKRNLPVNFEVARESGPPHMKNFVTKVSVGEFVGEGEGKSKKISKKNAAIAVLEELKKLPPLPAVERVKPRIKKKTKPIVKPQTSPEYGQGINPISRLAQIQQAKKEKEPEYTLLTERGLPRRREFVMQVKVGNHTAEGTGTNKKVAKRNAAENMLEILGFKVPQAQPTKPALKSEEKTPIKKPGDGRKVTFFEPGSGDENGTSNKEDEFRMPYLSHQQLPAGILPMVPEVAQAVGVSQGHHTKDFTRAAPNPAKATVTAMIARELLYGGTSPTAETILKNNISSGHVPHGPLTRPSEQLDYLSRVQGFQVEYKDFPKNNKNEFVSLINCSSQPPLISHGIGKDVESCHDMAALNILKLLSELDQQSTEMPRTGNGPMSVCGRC

[5] = target: the molecule itself; experiment: Y2H 1x1 mating, binder AD fusion, target BD fusion

- binding result [1]: no binding
- binding result [2]: no binding
- binding result (S100A1-1): no binding
- binding result (S100B-1): no binding
B1: S100B-2 (other, human, UniProt P04271 1-62, looked up)
chain: MSELEKAMVALIDVFHQYSGREGDKHKLKKSELKELINNELSHFLEEIKEQEVVDKVMETLD
notes: Truncated bait; also called truncated S100B
- binding result [3]: no binding

- binding result [4]: no binding
B2: PPP1R5 (Genbank ID: Y18207) (other, human, UniProt Q9UQK1 1-317, looked up)
chain: MSCTRMIQVLDPRPLTSSVMPVDVAMRLCLAHSPPVKSFLGPYDEFQRRHFVNKLKPLKSCLNIKHKAKSQNDWKCSHNQAKKRVVFADSKGLSLTAIHVFSDLPEEPAWDLQFDLLDLNDISSALKHHEEKNLILDFPQPSTDYLSFRSHFQKNFVCLENCSLQERTVTGTVKVKNVSFEKKVQIRITFDSWKNYTDVDCVYMKNVYGGTDSDTFSFAIDLPPVIPTEQKIEFCISYHANGQVFWDNNDGQNYRIVHVQWKPDGVQTQMAPQDCAFHQTSPKTELESTIFGSPRLASGLFPEWQSWGRMENLASYR
notes: Prey from brain, liver and muscle libraries
- binding result [5]: no binding
